Laboratory results taken from patent publication US20250034266A1 (ZAI LAB SHANGHAI, published 2025).

B1: Hu149-11G1x (antibody)
heavy: EVQLVESGGGLVQPGGSLKLSCAASGFTFNTYAMNWVRQASGKGLEWVGRIRSKSNFYATAYAASVKGRFTISRDDSKNTAYLQMNSLKTEDTAVYYCTRGREYGSSYAMDYWGQGTLVTVSS
VL: DIVMTQSPLSLPVTPGEPASISCRSSKSLLHSNANTYLYWFLQKPGQSPQLLIYRMSNLASGVPDRFSGSGSGTDFTLKISRVEAEDVGVYYCMQHLEYPLTFGGGTKVELK
notes: Fc variant of Hu149-11; not shown: Fc variant 'G1x' is not defined in words
B2: Hu149-12G1x (antibody)
heavy: EVQLVESGGGLVQPGGSLKLSCAASGFTFNTYAMNWVRQASGKGLEWVGRIRSKSNFYATAYAASVKGRFTISRDDSKNTAYLQMNSLKTEDTAVYYCTRGKEYGSSYAMDYWGQGTLVTVSS
VL: DIVMTQSPLSLPVTPGEPASISCRSSKSLLHSNANTYLYWFLQKPGQSPQLLIYRMSNLASGVPDRFSGSGSGTDFTLKISRVEAEDVGVYYCMQHLEYPLTFGGGTKVELK
notes: Fc variant of Hu149-12; not shown: Fc variant 'G1x' is not defined in words
B3: Hu348-1 (antibody, V domains shown)
VH: EVQLVESGGGLVQPGGSLKLSCATSGFSFSNYRMHWLRQASGKGLEWVGVITVKSDNYGANYAASVKGRFTISRDDSKSSVYLQMNSLKTEDTAVYYCSSLGRVAYWGQGTLVTVSS
VL: DIQMTQSPSSVSASVGDRVTITCKASQNVDTNVVWYQQKPGQSPKALIYSASSRYSGVPDRFSGSGSGTDFTLTISSLQPEDFATYYCQQHNSFPLTFGQGTKLEIK
notes: humanized IgG
B4: Hu348-2 (antibody, V domains shown)
VH: EVQLVESGGGLVQPGGSLKLSCATSGFSFSNYRMHWLRQASGKGLEWVGVITVKSDNYGANYAASVKGRFTISRDDSKSSVYLQMNSLKTEDTAVYYCSSLGRVAYWGQGTLVTVSS
VL: DIQMTQSPSSVSASVGDRVTITCKASQNVDTNVVWYQQKPGKAPKALIYSASSRYSGVPDRFSGSGSGTDFTLTISSLQPEDFATYYCQQHNSFPLTFGQGTKLEIK
notes: humanized IgG
B5: Hu348-3 (antibody, V domains shown)
VH: EVQLVESGGGLVQPGGSLKLSCATSGFSFSNYRMHWLRQASGKGLEWVGVITVKSDNYGANYAASVKGRFTISRDDSKSSVYLQMNSLKTEDTAVYYCSSLGRVAYWGQGTLVTVSS
VL: DIQMTQSPSSVSASVGDRVTITCKASQNVDTNVVWYQQKPGQSPKLLIYSASSRYSGVPDRFSGSGSGTDFTLTISSLQPEDFATYYCQQHNSFPLTFGQGTKLEIK
notes: humanized IgG
B6: Hu348-5 (antibody, V domains shown)
VH: EVQLVESGGGLVQPGGSLKLSCAASGFSFSNYAMHWLRQASGKGLEWVGVITVKSDNYGANYAASVKGRFTISRDDSKSSVYLQMNSLKTEDTAVYYCSSLGRVAYWGQGTLVTVSS
VL: DIQMTQSPSSVSASVGDRVTITCKASQNVDTNVVWYQQKPGQSPKALIYSASSRYSGVPDRFSGSGSGTDFTLTISSLQPEDFATYYCQQHNSFPLTFGQGTKLEIK
notes: humanized IgG
B7: Hu348-6 (antibody, V domains shown)
VH: EVQLVESGGGLVQPGGSLKLSCATSGFSFSNYRMHWVRQASGKGLEWVGVITVKSDNYGANYAASVKGRFTISRDDSKSSVYLQMNSLKTEDTAVYYCSSLGRVAYWGQGTLVTVSS
VL: DIQMTQSPSSVSASVGDRVTITCKASQNVDTNVVWYQQKPGQSPKALIYSASSRYSGVPDRFSGSGSGTDFTLTISSLQPEDFATYYCQQHNSFPLTFGQGTKLEIK
notes: humanized IgG
B8: Hu348-7 (antibody, V domains shown)
VH: EVQLVESGGGLVQPGGSLKLSCATSGFSFSNYRMHWLRQASGKGLEWVGRITVKSDNYGTAYAASVKGRFTISRDDSKSSVYLQMNSLKTEDTAVYYCSSLGRVAYWGQGTLVTVSS
VL: DIQMTQSPSSVSASVGDRVTITCKASQNVDTNVVWYQQKPGQSPKALIYSASSRYSGVPDRFSGSGSGTDFTLTISSLQPEDFATYYCQQHNSFPLTFGQGTKLEIK
notes: humanized IgG
B9: Hu348-8 (antibody, V domains shown)
VH: EVQLVESGGGLVQPGGSLKLSCATSGFSFSNYRMHWLRQASGKGLEWVGVITVKSDNYGANYAASVKGRFTISRDDSKNTAYLQMNSLKTEDTAVYYCSSLGRVAYWGQGTLVTVSS
VL: DIQMTQSPSSVSASVGDRVTITCKASQNVDTNVVWYQQKPGQSPKALIYSASSRYSGVPDRFSGSGSGTDFTLTISSLQPEDFATYYCQQHNSFPLTFGQGTKLEIK
notes: humanized IgG
B10: Hu348-9 (antibody, V domains shown)
VH: EVQLVESGGGLVQPGGSLKLSCATSGFSFSNYRMHWLRQASGKGLEWVGVITVKSDNYGANYAASVKGRFTISRDDSKSSVYLQMNSLKTEDTAVYYCTSLGRVAYWGQGTLVTVSS
VL: DIQMTQSPSSVSASVGDRVTITCKASQNVDTNVVWYQQKPGQSPKALIYSASSRYSGVPDRFSGSGSGTDFTLTISSLQPEDFATYYCQQHNSFPLTFGQGTKLEIK
notes: humanized IgG
B11: Hu149-11G1m (antibody, human IgG1)
heavy: EVQLVESGGGLVQPGGSLKLSCAASGFTFNTYAMNWVRQASGKGLEWVGRIRSKSNFYATAYAASVKGRFTISRDDSKNTAYLQMNSLKTEDTAVYYCTRGREYGSSYAMDYWGQGTLVTVSSASTKGPSVFPLAPSSKSTSGGTAALGCLVKDYFPEPVTVSWNSGALTSGVHTFPAVLQSSGLYSLSSVVTVPSSSLGTQTYICNVNHKPSNTKVDKKVEPKSCDKTHTCPPCPAPELVGGPSVFLLPPKPKDTLMISRTPEVTCVVVDVSHEDPEVKFNWYVDGVEVHNAKTKPPEEQYNSTLRVVSVLTVLHQDWLNGKEYKCKVSNKALPAPIEKTISKAKGQPREPQVYTLPPSRDELTKNQVSLTCLVKGFYPSDIAVEWESNGQPENNYKTTPLVLDSDGSFFLYSKLTVDKSRWQQGNVFSCSVMHEALHNHYTQKSLSLSPGK
VL: DIVMTQSPLSLPVTPGEPASISCRSSKSLLHSNANTYLYWFLQKPGQSPQLLIYRMSNLASGVPDRFSGSGSGTDFTLKISRVEAEDVGVYYCMQHLEYPLTFGGGTKVELK
B12: Hu149-12G1m (antibody, human IgG1)
heavy: EVQLVESGGGLVQPGGSLKLSCAASGFTFNTYAMNWVRQASGKGLEWVGRIRSKSNFYATAYAASVKGRFTISRDDSKNTAYLQMNSLKTEDTAVYYCTRGKEYGSSYAMDYWGQGTLVTVSSASTKGPSVFPLAPSSKSTSGGTAALGCLVKDYFPEPVTVSWNSGALTSGVHTFPAVLQSSGLYSLSSVVTVPSSSLGTQTYICNVNHKPSNTKVDKKVEPKSCDKTHTCPPCPAPELVGGPSVFLLPPKPKDTLMISRTPEVTCVVVDVSHEDPEVKFNWYVDGVEVHNAKTKPPEEQYNSTLRVVSVLTVLHQDWLNGKEYKCKVSNKALPAPIEKTISKAKGQPREPQVYTLPPSRDELTKNQVSLTCLVKGFYPSDIAVEWESNGQPENNYKTTPLVLDSDGSFFLYSKLTVDKSRWQQGNVFSCSVMHEALHNHYTQKSLSLSPGK
VL: DIVMTQSPLSLPVTPGEPASISCRSSKSLLHSNANTYLYWFLQKPGQSPQLLIYRMSNLASGVPDRFSGSGSGTDFTLKISRVEAEDVGVYYCMQHLEYPLTFGGGTKVELK
notes: suffix G1m read as for Hu149-11G1m (L235V/F243L/R292P/Y300L/P396L)
B13: 499B1A5 (antibody, V domains shown)
VH: EVQLVESGGGLVQPKGSLKLSCAASGFTFNTYAMNWVRQAPGKGLEWVARIRSKSNNYATYYADSVKDRFTISRDDSQSMLYLQMNNLKTEDTAMYYCVRHGRSGYLYAMDYWGQGTSVTVSS
VL: DIVMTQAAFSNPVTLGTSASISCRSSKSLLHSNGITYLYWYLQKPGQSPQLLIYQMSNLASGVPDRFSSSGSGTDFTLRISRVEAEDVGVYYCAQSLELPLTFGAGTKLELK
notes: Murine hybridoma antibody (supernatant)

Assays:
human CCR8 [1] = target: T1, human CCR8 (human, UniProt P51685 1-355); assay: FACS, competition with CCL1 on CHO-K1-human CCR8 cells
T1 construct: whole, on cells; also called hCCR8
T1 sequence (P51685 whole entry, the tested form may be a part): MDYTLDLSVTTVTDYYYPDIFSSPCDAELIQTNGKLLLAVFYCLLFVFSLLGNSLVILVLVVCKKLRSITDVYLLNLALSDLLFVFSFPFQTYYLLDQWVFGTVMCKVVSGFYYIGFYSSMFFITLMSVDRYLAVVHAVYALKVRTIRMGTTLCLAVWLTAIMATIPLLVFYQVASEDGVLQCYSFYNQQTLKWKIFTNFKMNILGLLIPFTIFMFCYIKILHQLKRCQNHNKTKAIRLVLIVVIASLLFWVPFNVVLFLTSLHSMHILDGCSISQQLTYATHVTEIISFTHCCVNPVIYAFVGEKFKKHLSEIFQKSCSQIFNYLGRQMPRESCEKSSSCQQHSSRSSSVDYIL

human CCR8 [2] = target: T1, human CCR8; assay: FACS on HuT78 cells (endogenous human CCR8)
cynomolgus CCR8 [3] = target: T2, cynomolgus CCR8 (cynomolgus, UniProt G7NYJ2 1-355); assay: FACS on HEK293-cynomolgus CCR8 cells
T2 construct: whole, on cells
T2 sequence (G7NYJ2 entry or part of it): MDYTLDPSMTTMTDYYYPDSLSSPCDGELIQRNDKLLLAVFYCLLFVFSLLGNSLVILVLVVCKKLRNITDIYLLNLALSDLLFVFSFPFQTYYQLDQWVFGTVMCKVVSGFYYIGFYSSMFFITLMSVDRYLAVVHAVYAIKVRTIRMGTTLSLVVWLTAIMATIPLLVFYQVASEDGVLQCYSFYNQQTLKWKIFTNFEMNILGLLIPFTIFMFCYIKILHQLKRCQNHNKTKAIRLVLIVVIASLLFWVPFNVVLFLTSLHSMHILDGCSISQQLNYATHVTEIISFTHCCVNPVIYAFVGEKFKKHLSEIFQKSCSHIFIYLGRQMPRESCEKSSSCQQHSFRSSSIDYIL

human CCR8 [4] = target: T1, human CCR8; assay: FACS on CHO-K1-human CCR8 cells
human CCR8 [5] = target: T1, human CCR8; assay: FACS, competition with AF647-human CCL1 on CHO-K1-human CCR8 cells
human CCR8 [6] = target: T1, human CCR8; assay: FACS on HEK293-human CCR8 cells
cynomolgus CCR8 [7] = target: T2, cynomolgus CCR8; assay: FACS on ExpiCHO-S-cynomolgus CCR8 cells
cynomolgus CCR8 [8] = target: T3, cynomolgus CCR8 (cynomolgus, UniProt G7NYJ2 1-355); assay: FACS, hybridoma supernatant on cynomolgus CCR8 cells
T3 construct: whole, on cells; also called HEK293-Cynomolgus CCR8; ExpiCHO-S cynomolgus CCR8
Procedure: (§1) Binding of hybridoma supernatant on CHO-K1-human CCR8 and ExpiCHO-S cynomolgus CCR8 cells. A total of 660 96-well plates were seeded and screened by FACS binding from the hybridoma derived from immunized animals.
(§2) To obtain antibodies cross-reactive to human and cynomolgus CCR8, hybridomas from mice immunized with human and cynomolgus CCR8 DNAs were screened by FACS. Briefly, 50 μL ExpiCHO-S cells transfected with human CCR8 or cynomolgus CCR8 (cell density: 2×10⁶ cells/mL, viability>90%) were incubated with equal volume hybridoma supernatant in 96 well plate (Corning) at 4° C. for 1 hour. […] Finally, the mixture was washed and resuspended with FACS buffer, and subjected to FACS analysis on BD FACS Celesta.
T3 sequence (G7NYJ2 entry or part of it): as above

human CCR8 [9] = target: T4, human CCR8 (human, UniProt P51685 1-355); assay: FACS, hybridoma supernatant on CHO-K1-human CCR8 cells
T4 construct: whole, on cells; In the β-arrestin assay CCR8 is fused to the ProLink (PK) tag; also called hCCR8; CHO-K1-human CCR8
Procedure: as §1, §2
T4 sequence (P51685 whole entry, the tested form may be a part): as the sequence (P51685 whole entry, the tested form may be a part) above

human CCR8 [10] = target: T4, human CCR8; assay: FACS competition, hybridoma supernatant with 4 nM AF647-human CCL1 on human CCR8 cells

| Binder | IC50 (human CCR8 [1]) [nM] | Max Inhibition (%) (human CCR8 [1]) | EC50 (human CCR8 [2]) [nM] | Max MFI (human CCR8 [2]) [MFI] | EC50 (cynomolgus CCR8 [3]) [nM] | Max MFI (cynomolgus CCR8 [3]) [MFI] | EC50 (human CCR8 [4]) [nM] | Max MFI (human CCR8 [4]) [MFI] | IC50 (human CCR8 [5]) [nM] | Max Inhibition (%) (human CCR8 [5]) | EC50 (human CCR8 [6]) [nM] | Max MFI (human CCR8 [6]) [MFI] | Max MFI (cynomolgus CCR8 [7]) [MFI] | further results |
| --- | --- | --- | --- | --- | --- | --- | --- | --- | --- | --- | --- | --- | --- | --- |
| B1 | 0.247 | 99.3 | 0.427 | 52700 | 0.24 | 4.52e+06 | 0.115 | 200000 |  |  |  |  |  |  |
| B2 | 0.17 | 100 | 0.313 | 52900 | 0.15 | 3.65e+06 | 0.0927 | 195000 |  |  |  |  |  |  |
| B3 |  |  |  |  |  |  |  |  | 0.23 | 94.1 | 0.122 | 5110 | 336 |  |
| B4 |  |  |  |  |  |  |  |  | 0.216 | 92.4 | 0.119 | 4740 | 296 |  |
| B5 |  |  |  |  |  |  |  |  | 0.362 | 83.1 | 0.108 | 4090 | 350 |  |
| B6 |  |  |  |  |  |  |  |  |  | 1.39 |  | 163 | 6 |  |
| B7 |  |  |  |  |  |  |  |  | 1.84 | 78.3 | 0.978 | 1980 | 82 | EC50 (cynomolgus CCR8 [7]): 31.1 nM |
| B8 |  |  |  |  |  |  |  |  |  | 25.6 |  | 756 | 174 |  |
| B9 |  |  |  |  |  |  |  |  | 0.358 | 88.4 | 0.144 | 4730 | 267 |  |
| B10 |  |  |  |  |  |  |  |  | 0.333 | 88.2 | 0.182 | 4500 | 148 |  |
| B11 | 0.231 | 99.4 | 0.384 | 45700 | 0.217 | 4.34e+06 | 0.112 | 193000 |  |  |  |  |  |  |
| B12 | 0.146 | 99.6 | 0.209 | 55600 | 0.183 | 3.24e+06 | 0.0668 | 183000 |  |  |  |  |  |  |
| B13 |  |  |  |  |  |  |  |  |  |  |  |  |  | Binding Ratio (GFP + MFI)/(GFP - MFI) (cynomolgus CCR8 [8]): 35.1; Binding Ratio (GFP + MFI)/(GFP - MFI) (human CCR8 [9]): 34.4; Inhibition Rate (%) (human CCR8 [10]): 95.1% |
